Data reported in CN116670173A (LAMCAP BIOTEST LTD, dated 2023).

B1: K2AC84 (bispecific antibody, human IgG1, kappa, lambda)
heavy: not shown
light 1: QSVLTQPPSVSAAPGQKVTISCSGSSSNIGIGLVSWYQQLPGTAPKLLIYNVNTRPSGIPDRFSGSKSGTSATLGITGLQTGDEADYYCGTWDFSYRVDFGGGTKLTVLGQPKAAPSVTLFPPSSEELQANKATLVCLISDFYPGAVTVAWKADSSPVKAGVETTTPSKQSNNKYAASSYLSLTPEQWKSHRSYSCQVTHEGSTVEKTVAPTECS
light 2: not shown
notes: kappa-lambda body, human IgG1; Common heavy chain and CD47 light chain tied by embodiment language only; also called CD47xCEACAM5双特异性抗体K2AC84; CEACAM5xCD47双特异性抗体
B2: K2AC22 (bispecific antibody, human IgG1, kappa, lambda)
heavy: not shown
light 1: QSVLTQPPSVSAAPGQKVTISCSGSSSNIANGIVSWYQQLPGTAPKLLIYFDNLRPSGIPDRFSGSKSGTSATLGITGLQTGDEADYYCGTWDFSYGIVFGGGTKLTVLGQPKAAPSVTLFPPSSEELQANKATLVCLISDFYPGAVTVAWKADSSPVKAGVETTTPSKQSNNKYAASSYLSLTPEQWKSHRSYSCQVTHEGSTVEKTVAPTECS
light 2: not shown
notes: Comparator from WO2019234576; also called 现有技术的双特异性CEAxCD47抗体K2AC22
B3: K2AC117 (bispecific antibody, human IgG1, kappa, lambda)
heavy: not shown
light 1: QSVLTQPPSVSAAPGQKVTISCSGSSSNIGIGLVSWYQQLPGTAPKLLIYNGNVRPSGIPDRFSGSKSGTSATLGITGLQTGDEADYYCGTWDFSYRVDFGGGTKLTVLGQPKAAPSVTLFPPSSEELQANKATLVCLISDFYPGAVTVAWKADSSPVKAGVETTTPSKQSNNKYAASSYLSLTPEQWKSHRSYSCQVTHEGSTVEKTVAPTECS
light 2: not shown
notes: kappa-lambda body, human IgG1; Common heavy chain and CD47 light chain tied by embodiment language only; also called CD47xCEACAM5双特异性抗体K2AC117; K2AC177 (as printed in some legends)
B4: K2AC91 (bispecific antibody, human IgG1, kappa, lambda)
heavy: not shown
light 1: QSVLTQPPSVSAAPGQKVTISCSGSSSNIGIGLVSWYQQLPGTAPKLLIYTVNNRPSGIPDRFSGSKSGTSATLGITGLQTGDEADYYCGTFDFSYGIVFGGGTKLTVLGQPKAAPSVTLFPPSSEELQANKATLVCLISDFYPGAVTVAWKADSSPVKAGVETTTPSKQSNNKYAASSYLSLTPEQWKSHRSYSCQVTHEGSTVEKTVAPTECS
light 2: not shown
notes: kappa-lambda body, human IgG1; Common heavy chain and CD47 light chain tied by embodiment language only; also called CD47xCEACAM5双特异性抗体K2AC91; CEACAM5xCD47双特异性抗体
B5: K2AC100 (bispecific antibody, human IgG1, kappa, lambda)
heavy: not shown
light 1: QSVLTQPPSVSAAPGQKVTISCSGSSSNIGYGLVSWYQQLPGTAPKLLIYNGNIRPSGIPDRFSGSKSGTSATLGITGLQTGDEADYYCGTWDFSYRVDFGGGTKLTVLGQPKAAPSVTLFPPSSEELQANKATLVCLISDFYPGAVTVAWKADSSPVKAGVETTTPSKQSNNKYAASSYLSLTPEQWKSHRSYSCQVTHEGSTVEKTVAPTECS
light 2: not shown
notes: kappa-lambda body, human IgG1; Common heavy chain and CD47 light chain tied by embodiment language only; also called CD47xCEACAM5双特异性抗体K2AC100; CEAxCD47双特异性抗体K2AC100
B6: K2AC82 (bispecific antibody)
heavy: not shown
light 1: QSVLTQPPSVSAAPGQKVTISCSGSSSNIGYGLVSWYQQLPGTAPKLLIYGINKRPSGIPDRFSGSKSGTSATLGITGLQTGDEADYYCGTWDFSYRVDFGGGTKLTVL
light 2: not shown
notes: kappa-lambda body, human IgG1, one arm for each target; Common heavy chain and CD47 light chain are tied to the antibodies of the invention by embodiment language only; also called CD47xCEACAM5双特异性抗体K2AC82; CEACAM5xCD47双特异性抗体; not shown: lambda constant domain; probably S

What follows are binders tested against T1, 在MKN-45细胞表面表达的人CD47 (human, UniProt Q08722 19-323) (assay: CD47/SIRPα blocking assay on MKN-45 cells, SIRPα-mouse Fc 50 ng/mL, imaging (CX5)).
T1 construct: whole, on cells; MKN-45 cells also carry CEACAM5; also called hCD47; CD47 on MKN-45 cells
T1 sequence (Q08722 19-323): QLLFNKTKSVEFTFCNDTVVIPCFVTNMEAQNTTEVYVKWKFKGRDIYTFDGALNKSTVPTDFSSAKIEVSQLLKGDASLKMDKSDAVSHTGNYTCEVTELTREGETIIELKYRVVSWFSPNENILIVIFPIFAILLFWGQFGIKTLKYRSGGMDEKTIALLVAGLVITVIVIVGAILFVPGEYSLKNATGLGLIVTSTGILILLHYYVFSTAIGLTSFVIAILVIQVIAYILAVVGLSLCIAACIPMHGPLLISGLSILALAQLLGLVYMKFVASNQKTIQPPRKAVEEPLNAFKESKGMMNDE

Binder	IC50
B1	0.04 nM
B2	1.2 nM
B3	0.08 nM
B4	0.05 nM
B5	0.09 nM
B6	0.07 nM
